B1: GST–DAXX tower (183–251) E225A (domain or fragment)
chain: GSRRQIQRLEQLLALYVAEIRRLQEKELDLSELDDPDSAYLQAARLKRKLIRLFGRLCELKDCSSLTGR
B2: GST–DAXX tower (183–251) K229A (domain or fragment)
chain: GSRRQIQRLEQLLALYVAEIRRLQEKELDLSELDDPDSAYLQEARLARKLIRLFGRLCELKDCSSLTGR
B3: GST–DAXX tower (183–251) Q206A (domain or fragment)
chain: GSRRQIQRLEQLLALYVAEIRRLAEKELDLSELDDPDSAYLQEARLKRKLIRLFGRLCELKDCSSLTGR

What follows are binders tested against wild-type histone H3.3–H4 tetramers (human, UniProt P84243 1-136; P62805 1-103) (assay: pull-down).
B1: binds. B2: binds. B3: binds.
